Source: patent publication US6570069B1, “Nucleic acids encoding plant inhibitors of apoptosis and transgenic cells and plants expressing them” (priority 2000, dated 2003)

T1: caspase-3 (Homo sapiens, UniProt P42574)
T1 construct: His6 (C); made in house
T1 sequence (P42574 29-175 limits assumed): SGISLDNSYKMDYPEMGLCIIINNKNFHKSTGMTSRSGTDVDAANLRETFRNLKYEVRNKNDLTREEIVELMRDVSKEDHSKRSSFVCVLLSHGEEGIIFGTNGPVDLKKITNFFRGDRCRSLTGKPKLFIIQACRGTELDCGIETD
T1 sequence (P42574 176-277 limits assumed): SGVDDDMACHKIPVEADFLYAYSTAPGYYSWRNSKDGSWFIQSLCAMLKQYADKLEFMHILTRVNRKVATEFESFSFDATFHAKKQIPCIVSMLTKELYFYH


Assays:
[1] = system: Fas-induced apoptosis in HEK293 cells; test: Fas-induced apoptosis in HEK293 cells (co-transfection, DAPI nuclear morphology); type: cell-based, human; details: IAP plasmid co-transfected with Fas into HEK293 cells; % apoptosis 24-36 hours later
Experimental: HEK293 and 293T cells were maintained in DMEM (Irvine Scientific) supplemented with 10% fetal bovine serum, 1 mM L-glutamine and antibiotics. 293 cells (10^6) were co-transfected using Superfect with 0.1 μg Green Fluoresence Protein (GFP) marker plasmid pEGFP (Clontech), 0.25 ug of either pcDNA3-Bax or pcDNA3-Fas, and 1.5 μg of either pcDNA3myc-SfIAP or pcDNA3myc-CpIAP. Alternatively, cells were co-transfected with 0.35 μg pcDNA3-caspase-9-Flag and 2.1 μg of either SfIAP or CpIAP. […] In some cases, lysates were prepared from transfected cells, normalized for total protein content, and analyzed by SDS-PAGE/immunoblotting as described (Deveraux, Q., et al., (1997) supra; Deveraux, Q. L., et al. (1998) supra; Roy, N. et al. (1997) supra; Takahashi, R., et al., (1998), supra.).
Baculoviral IAPs have been reported to protect mammalian cells from some apoptotic stimuli (Hawkins, C. J. et al., (1996) Proc. Natl. Acad. Sci. USA 93, 13786-13790; Hawkins, C. et al., (1998) Cell Death and Differentiation 5, 569-576; Uren, A. G. et al., (1996) Proc. Natl. Acad. Sci. USA 93, 4974-4978). Tests were performed to determine whether SfIAP is also capable of functioning as an apoptosis suppressor in a mammalian cell context. […]
Plasmids encoding various IAPs were co-transfected with Bax or Fas into 293 cells and % apoptosis was determined 24-36 hours later.

[2] = system: DEVD-cleaving proteases in cell extracts treated with caspase-8; test: Cell-free caspase activation induced by active caspase-8 in HEK 293 cytosolic extracts; type: biochemical, human; details: recombinant protein
Experimental: (§1) Caspase activity was assayed by release of 7-amino-4-trifluoromethyl-coumarin (AFC) from Ac-DEVD or Ac-LEHD-containing synthetic peptides (Calbiochem) using continuous-reading instuments as described (Quan, L. T. et al., (1995) J. Biol. Chem. 270:10377-10379).
Cytosolic extracts were prepared as described (Deveraux, Q., Takahashi, R., Salvesen, G. S. & Reed, J. C. (1997) Nature 388, 300-303) using human embryonic kidney (HEK) 293 cells. Cells were washed with ice-cold buffer A (20 mM HEPES pH 7.5, 10 mM KCl, 1.5 mM MgCl2, 1 mM EDTA and 1 mM DTT), suspended in 1 volume of buffer A, incubated on ice for 20 mins, and then disrupted by 15 passages through a 26-gauge needle. Cell extracts were purified by centrifugation at 15000 g for 12 mins and supernatants were stored at −80 ° C. For initiating caspase activation, either 100 nM of purified recombinant caspase-8 or 1 μM horse heart cytochrome c (Sigma) together with 1 mM dATP was added to extracts (Deveraux, Q. L., et al., (1998) EMBO J. 17, 2215-2223).
To further explore the mechanisms by which SfIAP and CpIAP inhibit mammalian apoptosis, a cell-free system in which exogenously added active caspase-8 or cyto c induces activation of caspase-3 and similar proteases, as measured by hydrolysis of Ac-DEVD-AFC (Quan, L. T. et al., (1995) J. Biol. Chem. 270, 10377-10379) was used. […]

[3] = target: T1, caspase-3; test: Inhibition of recombinant purified caspase-3; type: biochemical, mammalian; details: in vitro
Experimental: pGEX4T-1-SfIAP and pGEX4T-1 -CpIAP plasmids were introduced into E. coli strain BL21 (DE3) containing the plasmid pT-Trx. GST fusion proteins were obtained by induction with 0.05 mM IPTG at 25° C. for 8 hours, then purified using glutathione-Sepharose, essentially as described (Deveraux, Q., Welsh, K. & Reed, J. Methods of Enzymology in press). Caspases-3, and -7, containing C-terminal His6-tags, and caspase-8 containing an N-terminal His6-tag were purified as described previously (Stennicke, H. R. & Salvesen, G. S. (I1997) J. Biol. Chem. 272, 25719-25723; Stennicke, H., et al., (1998) J. Biol. Chem. 273, 27084-27090; Stennicke, H., et al., (1999) J. Biol. Chem. 274, 8359-8362). Caspase-9 lacking the CARD domain (ΔCARD-caspase-9) was constructed by truncating the cDNA and introducing a start codon substituting Val139. […] Concentrations of purified enzymes were determined from absorbance at 280 nm based on the molar absorption coefficients: caspase-3 (A280=26,000M−1 cm−1), caspase-7 (A280=24,500 M−1 cm−1), caspase-9 (A280=30,010M−1 cm−1).
as §1

Row | Molecule | suppression of Fas-induced apoptosis [1] | effect on DEVD-cleaving proteases [2] | inhibition of caspase-3 [3]
1 | SfIAP: cellular IAP cloned from Spodoptera frugiperda, protein of 377 amino acids (SEQ ID NO:3); GST-fusion when recombinant (protein, listed as Spodoptera frugiperda, GST fusion when recombinant; fall armyworm inhibitor of apoptosis protein (SfIAP)) MWSCSLPCWNTKKSGLQMDITKVASNGSSSTLTLFKSGSLEAKIRPLAPLMLPTPSYDSNAGSPSLSPSTPCSSSSFSIDKTDNHDTFGFSADTVDMRKEDERMKTFEKWPVSFLSGEQLARNGFYYLGRRDEARCAFCKVEIMRWVEGDDPAKDHQRWAPQCPFVRKLNGTAAADTGSSGQDECGARAAPSGTSPPRMAGPVHPRYASEAARLRSFKDWPRCMRQKPEELAEAGFFYTGQGDKTKCFYCDGGLKDWENHDVPWEQHARWFDRCAYVQLVKGREYVQKVISEACEVSASEAERDVAPARTAEPSPPAEAPENSVDDSKLCKICYAEERNVCFVPCGHVVACAKCALAADKCPMCRRTFQNAVRLYFS | ineffective at suppressing Fas-induced apoptosis | no effect on DEVD-cleaving proteases | nor inhibited
2 | CpIAP: baculoviral (CpGV) inhibitor of apoptosis protein; complete ORF expressed myc-tagged or as GST-fusion (protein, left off: a dimerising Fc or GST, complete ORF expressed myc-tagged or as GST-fusion) MSDLRLEEVRLNTFEKWPVSFLSPETMAKNGFYYLGRSDEVRCAFCKVEIMRWKEGEDPAADHKKWAPQCPFVKGIDVCGSIVTTNNIQNTTTHDTIIGPAHPKYAHEAARVKSFHNWPRCMKQRPEQMADAGFFYTGYGDNTKCFYCDGGLKDWEPEDVPWEQHVRWFDRCAYVQLVKGRDYVQKVITEACVLPGENTTVSTAAPVSEPIPETKIEKEPQVEDSKLCKICYVEECIVCFVPCGHVVACAKCALSVDKCPMCRKIVTSVLKVYFS | ineffective at suppressing Fas-induced apoptosis | no effect on DEVD-cleaving proteases | nor inhibited
